Source: patent US20250320468A1, “New Microbial Diamine Oxidase Derived from Yarrowia Lipolytica for the Degradation of Biogenic Amines” (UNIVERSITÄT HOHENHEIM, priority 2021, published 2025)
“Also recorded” adds a separate entry of the source. Read-outs that look alike come from different tables or passages of the source.

Key:
[1] = molecular target: T1, Yarrowia lipolytica PO1f diamine oxidase-1 (DAO-1), wild type, SEQ ID NO: 1 (Yarrowia lipolytica, UniProt Q6CGT2); experiment: Michaelis-Menten kinetics of DAO-1 with histamine, DA-67 assay in PIPES buffer; type: biochemical; settings: PIPES buffer (25 mM; pH 7.2), 37° C.
T1 sequence (Q6CGT2 1-671): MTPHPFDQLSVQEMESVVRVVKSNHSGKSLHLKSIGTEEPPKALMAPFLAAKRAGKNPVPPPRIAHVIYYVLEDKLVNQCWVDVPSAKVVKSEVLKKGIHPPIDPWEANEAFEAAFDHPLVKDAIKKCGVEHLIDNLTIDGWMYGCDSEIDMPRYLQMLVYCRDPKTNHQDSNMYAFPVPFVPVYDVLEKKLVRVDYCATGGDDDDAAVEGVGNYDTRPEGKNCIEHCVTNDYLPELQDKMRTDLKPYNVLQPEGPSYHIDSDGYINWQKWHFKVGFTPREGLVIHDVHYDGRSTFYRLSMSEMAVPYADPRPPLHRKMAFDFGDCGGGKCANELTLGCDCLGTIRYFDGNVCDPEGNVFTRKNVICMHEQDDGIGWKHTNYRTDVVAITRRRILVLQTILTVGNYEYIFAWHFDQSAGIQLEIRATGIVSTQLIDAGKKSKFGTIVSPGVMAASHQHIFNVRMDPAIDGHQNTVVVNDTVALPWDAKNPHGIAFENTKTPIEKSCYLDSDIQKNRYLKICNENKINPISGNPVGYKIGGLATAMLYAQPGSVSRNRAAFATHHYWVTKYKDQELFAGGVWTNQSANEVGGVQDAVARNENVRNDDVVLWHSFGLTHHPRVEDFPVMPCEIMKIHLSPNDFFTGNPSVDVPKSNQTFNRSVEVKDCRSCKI
Experimental: DAO-1 activity determined with the DA-67 assay in PIPES buffer (25 mM; pH 7.2) at 37° C.
The DAO activity was determined using the colorimetric DA-67 enzyme assay, as known in the art. […] Subsequently, 24 μL (266 units/mL) of horseradish peroxidase (Grade I) were added. The reaction was started by the addition of 50 μL enzyme solution and incubated at 37° C. for 10 min and stirred at 750 rpm. The reaction was stopped by the addition of 50 μL sodium diethyldithiocarbamate (30 mM). After centrifugation (10,000 g for 3 min at 20° C.), the absorption was measured at 668 nm. […] Hydrogen peroxide (0.5 to 10 nmol/mL) was used for the calibration. The enzyme activity was calculated in nkat, whereby 1 nkat converts 1 nmol substrate/s at 37° C.
Kinetic investigations were done within the initial reaction velocity.
Data are presented as mean values with standard deviation. Enzyme kinetics were evaluated by nonlinear regression using the data analyzing software Sigmaplot 12.5 (Systat Software GmbH, Erkrath, Germany).

[2] = molecular target: T1, Yarrowia lipolytica PO1f diamine oxidase-1 (DAO-1), wild type, SEQ ID NO: 1
Experimental: DAO-1 activity was determined with the DA-67 assay.
The DAO-1 activity was determined using a colorimetric DA-67 enzyme assay. […] Subsequently, 12 μL (266 units/mL) of horseradish peroxidase (Grade I) were added. The reaction was started by the addition of 25 μL DAO solution and incubated at 37° C. for 10 min and stirred at 750 rpm. The reaction was stopped by the addition of 50 μL sodium diethyldithiocarbamate (30 mM). After centrifugation (10,000 g for 3 min at 20° C.), the absorption was measured at 668 nm. […] Hydrogen peroxide (0.5 to 10 nmol/mL) was used for the calibration. The enzyme activity was calculated in nkat, whereby 1 nkat converts 1 nmol substrate/s at 37° C.
The DAO-1 activity was determined using the DA-67 assay. For unhydrolyzed conditions, the DA-67 reagent (50 μM) was prepared in SIF containing BSA, WPI, sodium-caseinate each at 35.6 g/L and 106.8 g/L sucrose (pH 6.8). […] The DAO-1 was desalted against SIF using PD MidiTrap G-25 columns.
For the hydrolyzed conditions, BSA, WPI, sodium-caseinate each at 16.67 g/L and 50 g/L sucrose were first incubated in SIF (with pancreatin) at 37° C. and 130 rpm for 90 min. […]
All experiments were done at least in duplicate and evaluated by determining the standard deviation with Excel. […] Enzyme kinetics were evaluated by nonlinear regression using the data analyzing software Sigmaplot 12.5 (Systat Software GmbH, Erkrath, Germany).

[3] = system: porcine kidney diamine oxidase (DAO); settings: cited from earlier work
[4] = system: human diamine oxidase (DAO); settings: cited from earlier work
[5] = system: Arthrobacter crystallopoietes KAIT-B-007 histamine oxidase; settings: cited from earlier work
[6] = system: Aspergillus niger amine oxidase; settings: cited from earlier work
[7] = DAO activity of Y. lipolytica PO1f_axp_dao-2 cell extract versus wildtype extract; type: biochemical
Experimental: (§1) The DAO activity was determined using the colorimetric DA-67 enzyme assay, as known in the art.
(§2) Y. lipolytica PO1f was identified as the owner of two putative DAOs using the BLAST program (https://blast.ncbi.nlm.nih.gov). […] Both genes were amplified from the genome of the Y. lipolytica strain PO1f and successfully integrated into the axp locus of the genome (integration efficiency of around 20%), resulting in the recombinant strains Y. lipolytica PO1f_axp_dao-1 and Y. lipolytica PO1f_axp_dao-2. The genes were integrated into the axp locus because it allowed efficient expression of the proteins desired with the chosen strategy for homologous recombinant integration, as known in the art. Gene expression was thereby conducted using the strong, constitutive promoter UAS1B8_TEF (136).

[8] = DAO activity of Y. lipolytica PO1f_axp_dao-2 cell extract versus wildtype extract, agmatine; type: biochemical
Experimental: as §1, §2

[9] = cited from earlier work
[10] = kinetic studies from the art; cited from earlier work
[11] = cited from earlier work; for in vitro reduction of histamine: 150 mg/L (75 mg) histamine, 50 nkat (0.1 nkat/mL), 5 h
[12] = simulated intestinal fluid; cited from earlier work
[13] = extracted and partially purified from pig kidney (heat treatment, salt precipitation, HIC), cited from earlier work
[14] = substrates at 1 mM; cited from earlier work
[15] = read-out: Ki (substrate inhibition by histamine)

NCCc1c[nH]cn1 [histamine]
substrate inhibition recognized for histamine concentrations [1]: greater than 12.5 mM
substrate inhibition recognized for histamine concentrations ([2]; hydrolyzed food-matrix SIF 3): greater than 12.5 mM
substrate inhibition recognized for histamine concentrations ([2]; unhydrolyzed food-matrix SIF 3): greater than 12.5 mM
Km [3]: 27 µM
substrate inhibition by histamine concentrations ([3]; porcine kidney DAO, 56 mg/L (0.5 mM)): > 0.5 mM
Ki [3, 15]: 5710 µM
Km [4]: 2.8 µM
Ki [4, 15]: 280 µM
Km [5]: 500 µM
Km [6]: 600 µM

B1: DAO-2: second putative DAO from Y. lipolytica PO1f (Uniprot: A0A371BXN9), gene dao-2 SEQ ID NO: 3 (protein, listed as Yarrowia lipolytica)
chain: MHRLSQLATQTTAATITAGHPLDPLSPSEIEHAASIVKSQMRDSSPYRFNLITLIEPPKAELLAWEASPSSVAKPPRRAEVVLVVRGKKGVTEGRVCLTGSKVLSWSEIEGVQPILTVDDLQKVEEIVRQDPEVIKQCKLIGVDNMSQVYCDPWTIGYDERWGAERRLQQAFLYFRAHQDDSQYSHPLDFTPIYDATEQKVIFIDIPPVRRPLSKLKNSNFNPQDISKTTGYRDVKPIDVSQPEGVNFKMTGRIMEWQGFRFHVGFNYREGIVLSQISFNDHGNQRNMFHRLSLVEMVVPYGNPEHPHQRKHAFDLGEYGAGLMTNPLSLGCDCKGVIHYLDAHFSDAEGKPLTVPNAVCIHEEDNGLLFKHSDFRDEFQTSIVTRATKLILSQIFTAANYEYCVYWIFHQDGTIQLEIKLTGILNTFPCNPGEDLHGWGTEVYPGTNAHNHQHLFSLRIHPAIDSQLHPGNSVAMVDAERSPFPPGHPENLHGNGFRPKRTVFNNPIEAMTDYDGNTSRTWDFFNPKSINQYSKKPASYKLVSRECPPLLPQPGGLVWNRAGFARHHMHVVPYVDGQLYPAGRFVCQTSGKPSRGLPEWIEQCGEKANINDTDVVAYHTFGLTHFPAPEDFPLMPAEPMTLLLRPRNFFLQNPALDVPPSHARTTTEAQAASGAKVVSLTDKVSQLAFNKSCCSK
enzyme activity towards histamine ([7]; recombinant Y. lipolytica PO1f_axp_dao-2 extract): no activity; also recorded: did not show enzyme activity
increase in DAO-activity versus wildtype cell extract ([7]; substrates histamine, putrescine, cadaverine, tyramine, spermidine, tryptamine): did not show an increase
activity with agmatine ([8]; cell extract, shaking flask): around 50 nkatAgmatine (14.5 mM)/LCulture
increase in activity versus wildtype cell extract ([8]; substrate agmatine): 5.5 fold

B2: human DAO: human diamine oxidase (Uniprot: P19801), prior-art comparator (protein, UniProt P19801 20-751, looked up)
Diamine oxidase …: EPSPGTLPRKAGVFSDLSNQELKAVHSFLWSKKELRLQPSSTTTMAKNTVFLIEMLLPKKYHVLRFLDKGERHPVREARAVIFFGDQEHPNVTEFAVGPLPGPCYMRALSPRPGYQSSWASRPISTAEYALLYHTLQEATKPLHQFFLNTTGFSFQDCHDRCLAFTDVAPRGVASGQRRSWLIIQRYVEGYFLHPTGLELLVDHGSTDAGHWAVEQVWYNGKFYGSPEELARKYADGEVDVVVLEDPLPGGKGHDSTEEPPLFSSHKPRGDFPSPIHVSGPRLVQPHGPRFRLEGNAVLYGGWSFAFRLRSSSGLQVLNVHFGGERIAYEVSVQEAVALYGGHTPAGMQTKYLDVGWGLGSVTHELAPGIDCPETATFLDTFHYYDADDPVHYPRALCLFEMPTGVPLRRHFNSNFKGGFNFYAGLKGQVLVLRTTSTVYNYDYIWDFIFYPNGVMEAKMHATGYVHATFYTPEGLRHGTRLHTHLIGNIHTHLVHYRVDLDVAGTKNSFQTLQMKLENITNPWSPRHRVVQPTLEQTQYSWERQAAFRFKRKLPKYLLFTSPQENPWGHKRTYRLQIHSMADQVLPPGWQEEQAITWARYPLAVTKYRESELCSSSIYHQNDPWHPPVVFEQFLHNNENIENEDLVAWVTVGFLHIPHSEDIPNTATPGNSVGFLLRPFNFFPEDPSLASRDTVIVWPRDNGPNYVQRWIPEDRDCSMPPPFSYNGTYRPV
pH of maximal DAO activity ([9]; putrescine as substrate, phosphate buffer, DAO from blood serum): 7.5

B3: porcine DAO: DAO extracted from porcine kidney (Uniprot: Q9TRC7), prior-art comparator (protein, UniProt Q9TRC7 25-755, looked up)
Diamine oxidase …: ERSPRTPGGKAGVFADLSAQELKAVHSFLWSQKELKLEPSGTLTMAKNSVFLIEMLLPKKQHVLKFLDKGHRRPVREARAVIFFGAQEQPNVTEFAVGPLPTPRYMRDLPPRPGHQVSWASRPISKAEYALLSHKLQEATQPLRQFFRRTTGSSFGDCHEQCLTFTDVAPRGLASGQRRTWFILQRQMPGYFLHPTGLELLVDHGSTNAQDWTVEQVWYNGKFYRSPEELAQKYNDGEVDVVILEDPLAKGKDGESLPEPALFSFYQPRGDFAVTMHGPHVVQPQGPRYSLEGNRVMYGGWSFAFRLRSSSGLQILDVHFGGERIAYEVSVQEAVALYGGHTPAGMQTKYIDVGWGLGSVTHELAPDIDCPETATFLDALHHYDADGPVLYPRALCLFEMPTGVPLRRHFNSNFSGGFNFYAGLKGQVLVLRTTSTVYNYDYIWDFIFYPNGVMEAKMHATGYVHATFYTPEGLRYGTRLHTHLIGNMHTHLVNYRVDLDVAGTTNSFQTLQMELENITNPWSPRHRLVQPTLKQTRYSRERQAAFRFGQPLPKYLLITSPKENPWGHTRSYRLQLHSMADQVLPPGWQEERAVTWARYPLAVTRYRESELSSSSIYNQNDPWDPPVVFEEFLRNNENIEDEDLVAWVTVGFLHIPHSEDIPNTATPGNSVGFLLRPFNFFPEDPALASRDLVVVWPLENGSTYAQRWIPEEDQSCLKPPPFSYNGSYRPV
histamine concentration above which substrate inhibition occurs [10]: greater than 56 mg/L
in vitro reduction of histamine [11]: Around 90%
in vitro reduction of histamine ([11]; listed as free porcine DAO): about 90%
DAO activity required for the degradation of food-relevant histamine (75 mg) ([11]; within 5 h under in vitro conditions, about 90% reduction): 50 nkat
half-life [12]: approximately 19 minutes
specific DAO activity [13]: 81 nkat/gProtein
specific DAO activity ([13]; listed as DAO from porcine kidney): 81±1 nkat/gProtein
pH of maximal DAO activity ([9]; cadaverine as substrate, potassium phosphate buffer): 7.4
pH of maximal DAO activity ([9]; histamine as substrate, potassium phosphate buffer): 6.3
DAO activity with histamine compared to the maximal measured activity with putrescine [14]: 19%
